Experimental data taken from the supplement of paper PMC10201428.
± gives the standard deviation of the averaged measurements.

Key:
[1] = tested on: VchCAST RNA-guided transposition machinery (E. coli BL21(DE3) host, lacZ target); experiment: relative integration efficiency (T-LR orientation) vs wild-type transposon end (log2 (normalized fold change)); transposon end mutated: right end (5 bp flank + 75 bp right end); higher = more efficient transposition
How it was run: (§1)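 Each barcoded pool, 1549 left-end or 1849 right-end transposon variants in a pUC57 mini-transposon donor, went into E. coli BL21(DE3) with a T7-driven effector plasmid (CRISPR array, tniQ-cas8-cas7-cas6, tnsA-tnsB-tnsC). Plates contained 0.1 mM IPTG and were held at 37°C for 18 h. Input plasmids and genomic integration junctions were PCR-amplified and read by Illumina sequencing, with two biological output replicates and four reference barcodes. Relative integration efficiency is the fold change of output over input barcode abundance, normalised to the reference barcodes and log-transformed.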

[2] = tested on: VchCAST RNA-guided transposition machinery (E. coli BL21(DE3) host, lacZ target); experiment: relative integration efficiency (T-RL orientation) vs wild-type transposon end (log2 (normalized fold change)); transposon end mutated: right end (5 bp flank + 75 bp right end); higher = more efficient transposition
How it was run: as §1

ACATTTGTTGATAGAACCATTTAATGATAATAACACCCATAAAATGATAATTATCACACCCAATTTAACTATAACGCTCTGATCATAGTCAGACCAACATTGCTACGACCCGTATTCGCACCGACAC
relative integration efficiency (log2) [1]: 0.598 ± 0.17
relative integration efficiency (log2) [2]: -2.12 ± 0.42

ACATTTGTTGATAACCACATAAAATGATAATTACACCCATAAATTGATAATTATCACACCCATAAATTGATATTGCCTCTGATCATAGTCAGACCAACATTGCTACGACCCGTATTCGCACCGACAC
relative integration efficiency (log2) [1]: -1.28 ± 0.093
relative integration efficiency (log2) [2]: -0.808 ± 0.095

ACATTTGTTGATACAACCATAAAATGATAATTACACCCATAAATTGATAATTATCACACCCATAAATTGATATTGCCTCTGATCGTTTTAAGGATGACTTCAGTCGCGCCGTACTTCGCACCGACAC
relative integration efficiency (log2) [1]: -0.209 ± 0.13
relative integration efficiency (log2) [2]: -0.207 ± 0.2

ACATTTGTTGATACACCCATAAATTGATATTGCCAACCATAAAATGATAATTATCACAACCATAAAATGATAATTACTCTGATCATAGTCAGACCAACATTGCTACGACCCGTATTCGCACCGACAC
relative integration efficiency (log2) [1]: -0.058 ± 0.3
relative integration efficiency (log2) [2]: -0.123 ± 0.11

ACATTTGTTGATACAACCATCAAATGATAATTACACCCCTAAATTGATAATTATCACACCCAATTTAACTATAACGCTCTGATCATAGTCAGACCAACATTGCTACGACCCGTATTCGCACCGACAC
relative integration efficiency (log2) [1]: -0.622 ± 0.093
relative integration efficiency (log2) [2]: -3.41 ± 0.3

ACATTTGTTGATACAACCATAATTACATAATTACACCCATAAATTGATAATTATCACACCCATAAATTGATATTGCCTCTGATCATAGTCAGACCAACATTGCTACGACCCGTATTCGCACCGACAC
relative integration efficiency (log2) [1]: -2.85 ± 0.16
relative integration efficiency (log2) [2]: -2.32 ± 0.15

ACATTTGTTGATACAACCATAAAATGATAATTACACCCATAAATTGATAATTATCACACCCATAAATTGATATTGCCGATGATCATAGTCAGACCAACATTGCTACGACCCGTATTCGCACCGACAC
relative integration efficiency (log2) [1]: 0.0792 ± 0.085
relative integration efficiency (log2) [2]: 0.336 ± 0.0049

ACATTTGTTGATACAACCATAAAATGTATTTTACACCCATAAATTGATAATTATCACACCCATAAATTGATATTGCCTCTGATCATAGTCAGACCAACATTGCTACGACCCGTATTCGCACCGACAC
relative integration efficiency (log2) [1]: -0.626 ± 0.31
relative integration efficiency (log2) [2]: -0.938 ± 0.035

ACATTTGTTGATACAACCATAAAATGGTAATTCCACCCCTACATTGATAATTATCACACCCAATTTAACTATAACGCTCTGATCATAGTCAGACCAACATTGCTACGACCCGTATTCGCACCGACAC
relative integration efficiency (log2) [1]: -0.604 ± 0.45
relative integration efficiency (log2) [2]: -3.92 ± 0.41

ACATTTGTTGATACAACCATATATTGATATCTCCAACCATAAGTTGATATTTTTCACAACCATATATTGATATCTCCTCTGATCATAGTCAGACCAACATTGCTACGACCCGTATTCGCACCGACAC
relative integration efficiency (log2) [1]: 0.0875 ± 0.82
relative integration efficiency (log2) [2]: -0.17 ± 0.037

ACATTTGTTGATACAACCATAAAATGATAATTAATAATTATTTATAATCCACCCATAAATTGATAATTATCACACCCATAAATTGATATTGCCTCTGATCATAGTCAGACCAACATTGCTACGACCC
relative integration efficiency (log2) [1]: 0.382 ± 0.22
relative integration efficiency (log2) [2]: -3.09 ± 0.19

ACATTTGTTGATACAACCATAAAATGATAATTACACCCATAAATTGATAATTATCTGTGCCATAAATTGATATTGCCTCTGATCATAGTCAGACCAACATTGCTACGACCCGTATTCGCACCGACAC
relative integration efficiency (log2) [1]: 2.04 ± 0.1
relative integration efficiency (log2) [2]: -0.555 ± 0.23

ACATTTGTTGATACAACCATAAAATGATAATTACTCTGATCATAGTCAGACCAACATTGCTACGACCCGTATTCGCACCGACACACCCATAAATTGATAATTATCAGTGGGTATTTAACTATAACGC
relative integration efficiency (log2) [1]: 2.24 ± 0.21
relative integration efficiency (log2) [2]: -1.05 ± 0.17

ACATTTGTTGATACACCCATAAATTGATATTGCCAACCATAAAATGATAATTATCACAACCATATATTGATATCTCCTCTGATCATAGTCAGACCAACATTGCTACGACCCGTATTCGCACCGACAC
relative integration efficiency (log2) [1]: -0.207 ± 0.002
relative integration efficiency (log2) [2]: -0.961 ± 0.18

ACATTTGTTGATACAACCATTAAATGATAATTACACCCATTAATTGATAATTATCACACCCATTAATTGATATTGCCTCTGATCATAGTCAGACCAACATTGCTACGACCCGTATTCGCACCGACAC
relative integration efficiency (log2) [1]: -0.0993 ± 0.43
relative integration efficiency (log2) [2]: -0.515 ± 0.021

ACATTTGTGGATACAACCATAAAATGATAATTACCACCCATAAATTGATAATTATCACACCCATTTAACTATAACGCTCTGATCATAGTCAGACCAACATTGCTACGACCCGTATTCGCACCGACAC
relative integration efficiency (log2) [1]: 1.54 ± 0.083
relative integration efficiency (log2) [2]: -1.11 ± 0.24

ACATTTGTTGATACAACCATAAAATGATAATTACACCCATAAATTGATAATATTCACACCCATAAATTGATATTGCCTCTGATCATAGTCAGACCAACATTGCTACGACCCGTATTCGCACCGACAC
relative integration efficiency (log2) [1]: -0.107 ± 0.095
relative integration efficiency (log2) [2]: -0.274 ± 0.23

ACATTTGTTGATACAACCATAAAATGATAATTACACCCATAAATCTGAAATTATCACACCCATAAATTGATATTGCCTCTGATCATAGTCAGACCAACATTGCTACGACCCGTATTCGCACCGACAC
relative integration efficiency (log2) [1]: -1.08 ± 0.29
relative integration efficiency (log2) [2]: -0.888 ± 0.057

ACATTTGTTGATACAACCATAAAATGATATATACACCCATAAATTGATAATTATCACACCCATAAATTGATATTGCCTCTGATCATAGTCAGACCAACATTGCTACGACCCGTATTCGCACCGACAC
relative integration efficiency (log2) [1]: 0.0362 ± 0.23
relative integration efficiency (log2) [2]: -0.131 ± 0.097

ACATTTGTTGATACAACCATAAAATGATAATTACACCCATAAATTGATAATTATCACACCCATAAATTGATATTGCCTCTGATCAGGCAGTGAGCGCAACGCAATTTAGTCAGACCAGCACCGACAC
relative integration efficiency (log2) [1]: -0.287 ± 0.16
relative integration efficiency (log2) [2]: -0.283 ± 0.16

ACATTTGTTGATACAACCATAAAATGATAATTACCACCCATACATTGATAATTATCACACCCATTTAACTATAACGCTCTGATCATAGTCAGACCAACATTGCTACGACCCGTATTCGCACCGACAC
relative integration efficiency (log2) [1]: 0.106 ± 0.04
relative integration efficiency (log2) [2]: -2.43 ± 0.1

ACATTAGTGGATACAACCATAAAATGATAATTACACCCATAAATTCATCATTATCACACCCAATTTAACTATAACGCTCTGATCATAGTCAGACCAACATTGCTACGACCCGTATTCGCACCGACAC
relative integration efficiency (log2) [1]: -4.73 ± 0.58
relative integration efficiency (log2) [2]: -7.21 ± 0.51

ACATTTGTTGATACAACCATAAAATGATAATTACACCCATAAATTGATAATTATCACACCCATAAATTGATATTGAAGAGGATCATAGTCAGACCAACATTGCTACGACCCGTATTCGCACCGACAC
relative integration efficiency (log2) [1]: -0.000932 ± 0.33
relative integration efficiency (log2) [2]: -0.00509 ± 0.15

ACATTTGTTGATACAACCATAAGTTGATATTTTCAACCATAAAATGATAATTATCACAACCATAAAGTGATATTTACTCTGATCATAGTCAGACCAACATTGCTACGACCCGTATTCGCACCGACAC
relative integration efficiency (log2) [1]: -0.26 ± 0.094
relative integration efficiency (log2) [2]: 0.0134 ± 0.036

ACATTTGTTGATACAACCATAAGTTGATATTTTCACCCATAAATTGATATTGCTCACAACCATAAAGTGATATTTACTCTGATCATAGTCAGACCAACATTGCTACGACCCGTATTCGCACCGACAC
relative integration efficiency (log2) [1]: -0.333 ± 0.49
relative integration efficiency (log2) [2]: -0.377 ± 0.053

ACATTTGTGGATCCAACCATAAAATGATAATTACACCCATAAATTGATCATTATCACACCCAATTTAACTATAACGCTCTGATCATAGTCAGACCAACATTGCTACGACCCGTATTCGCACCGACAC
relative integration efficiency (log2) [1]: 1.72 ± 0.11
relative integration efficiency (log2) [2]: -1.6 ± 0.2

ACATTTGTTGATACAACCATAAAATGATAATTAATAATTATTTATAATCAGCAACCACCCATAAATTGATAATTATCAACAAACGCCCGGTCGCGGTACTCTGATCATAGTCAGACCAACATTGCTA
relative integration efficiency (log2) [1]: 0.0897 ± 0.14
relative integration efficiency (log2) [2]: -2.29 ± 0.24

ACATTTGTTGATACAACCATAAAATGATAATTAATAATTATTTATAATCAGCAACTTAACCACAAAACACCCATAAATTGATAATTAACAAAACACCCATAAATTGATATTGCCTCTGATCATAGTC
relative integration efficiency (log2) [1]: < -10
relative integration efficiency (log2) [2]: -5.1 ± 0.59

ACAGGTGTTGATACAACCATAAAATGATAATTACACCCATAAATTGATAATTATCACACCCATAAATTGATATTGCCTCTGATCATAGTCAGACCAACATTGCTACGACCCGTATTCGCACCGACAC
relative integration efficiency (log2) [1]: -0.1 ± 0.25
relative integration efficiency (log2) [2]: -0.284 ± 0.012

ACATTTGTTGATACAACCATATATTGATATCTCCACCCATAAATTGATAATTATCAGTGGGTATTTAACTATAACGCTCTGATCATAGTCAGACCAACATTGCTACGACCCGTATTCGCACCGACAC
relative integration efficiency (log2) [1]: 2.29 ± 0.021
relative integration efficiency (log2) [2]: -1.01 ± 0.15

ACATTTGTTGATACAACCATAAAGTGATATTTACAACCATAAAATGATAATTATCACACCCATAAATTGATATTGCCTCTGATCATAGTCAGACCAACATTGCTACGACCCGTATTCGCACCGACAC
relative integration efficiency (log2) [1]: -0.097 ± 0.68
relative integration efficiency (log2) [2]: -0.00564 ± 0.04

ACATTTGTTGATACAACCATATATTGATATCTCCAACCATAAAATGATAATTATCACAACCATAAGTTGATATTTTCTCTGATCATAGTCAGACCAACATTGCTACGACCCGTATTCGCACCGACAC
relative integration efficiency (log2) [1]: -0.357 ± 0.16
relative integration efficiency (log2) [2]: -0.491 ± 0.098

ACATTTGTTGATACAACCATAAAATGATAATTACAACCATAAGTTGATATTTTTCACAACCATAAAGTGATATTTACTCTGATCATAGTCAGACCAACATTGCTACGACCCGTATTCGCACCGACAC
relative integration efficiency (log2) [1]: 0.666 ± 0.12
relative integration efficiency (log2) [2]: 0.274 ± 0.2

ACATTTGTTGATACAACCATCCAATGATAATTACACCCATAAATTGATAATTATCACACCCATAAATTGATATTGCCTCTGATCATAGTCAGACCAACATTGCTACGACCCGTATTCGCACCGACAC
relative integration efficiency (log2) [1]: -2.03 ± 0.58
relative integration efficiency (log2) [2]: -1.36 ± 0.083

ACATTTGTTGATACAACCATAAAATGATAATTACAACCATAAGTTGATATTTTTCACAACCATAAGTTGATATTTTCTCTGATCATAGTCAGACCAACATTGCTACGACCCGTATTCGCACCGACAC
relative integration efficiency (log2) [1]: -0.201 ± 0.37
relative integration efficiency (log2) [2]: 0.0355 ± 0.25
